Source: patent US20130137631A1
Positions count from the first letter of the chain named.

T1: human GIP receptor (human), P48546
T1 chain: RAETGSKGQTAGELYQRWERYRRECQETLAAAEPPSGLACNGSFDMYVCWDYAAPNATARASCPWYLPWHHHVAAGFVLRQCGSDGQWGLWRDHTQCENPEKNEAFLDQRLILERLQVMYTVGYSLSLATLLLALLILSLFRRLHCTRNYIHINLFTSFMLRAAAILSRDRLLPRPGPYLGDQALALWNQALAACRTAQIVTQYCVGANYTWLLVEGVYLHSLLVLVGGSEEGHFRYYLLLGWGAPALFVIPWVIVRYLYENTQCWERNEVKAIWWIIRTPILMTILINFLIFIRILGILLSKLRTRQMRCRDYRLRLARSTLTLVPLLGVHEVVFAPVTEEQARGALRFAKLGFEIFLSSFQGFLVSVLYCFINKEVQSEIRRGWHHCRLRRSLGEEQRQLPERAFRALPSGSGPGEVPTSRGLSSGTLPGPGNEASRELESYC

B1: 0601GIP4838 (peptide)
peptide: HAEGTFISDYSIAMDKIHQQDFVNWLLAQKPKKIRYS
modifications: not checked
B2: 0601GIP4914 (peptide)
peptide: B1 peptide with H1Y, I34Q
modifications: not checked
B3: 0601GIP4856 (peptide)
peptide: B1 peptide with H1Y, I34A
modifications: not checked
B4: 0601GIP4854 (peptide)
peptide: B1 peptide with H1Y, K33Q
modifications: not checked
B5: 0601GIP4865 (row r89, Gln24) (peptide)
peptide: B1 peptide with H1Y, N24Q
modifications: not checked
B6: 0601GIP4851 (peptide)
peptide: B1 peptide with H1Y, K32N
modifications: not checked
B7: 0601GIP4845 (peptide)
peptide: B1 peptide with H1Y, W25Q
modifications: not checked
B8: 0601GIP4913 (peptide)
peptide: B1 peptide with H1Y, R35Q
modifications: not checked
B9: 0601GIP4852 (peptide)
peptide: B1 peptide with H1Y, K33N
modifications: not checked
B10: 0601GIP4855 (peptide)
peptide: B1 peptide with H1Y, K32Q, K33Q
modifications: not checked
B11: 0601GIP4853 (peptide)
peptide: B1 peptide with H1Y, K32Q
modifications: not checked
B12: 0601GIP5097 (peptide)
peptide: YAEGTFISDYSIALDKIAQQEFVNWLLAQKPSSGAPPKSK
modifications: not checked
B13: 0601GIP5098 (peptide)
peptide: B12 peptide with D15E, A18R, K38N
modifications: not checked

Target: T1, human GIP receptor (human), P48546
Test: 125I-GIP displacement, HEK-GIPR membranes

% Inh 10 nM [%]	IC50 [nM]	Binder
34.3	–	B1
96.3	–	B2
83.7	–	B3
93.5	–	B4
85.6	–	B5
87	–	B6
69.5	–	B7
92.1	–	B8
90	–	B9
78.8	0.72	B10
91	–	B11
101	–	B12
97	–	B13
